The chains are these.
B1: TPR t1 (parent)
chain: GACCAAUCUGCCCUCAGAGCUCGAGAACAUCUUCGGAUGCAGAGGAGGCAGGCUUCGGUGGCGCGAUAGCGCCAACGUCCUCAACCUCCAAUGCAUCCCACCACAUGAUGAUGCCUGAAGAGCCUUGGUUUUUUG

Variants of B1 are the subject of the series. The series is described as follows: polymerase ribozyme fitness, log enrichment relative to wild type (log ratio); higher = more active; in vitro selection for triplet polymerase activity. The procedure, abridged: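 Each subunit of a heterodimeric triplet polymerase ribozyme was mutagenized into a library by PCR, transcribed, and subjected to one round of in vitro selection, run in triplicate. Libraries were annealed with a biotinylated primer, the partner subunit and triplets, incubated frozen at −7 °C, and extended constructs were gel-excised, captured on streptavidin beads and recovered by RT-PCR. Input and output libraries were sequenced on Illumina, keeping genotypes with ≥10 input reads and ≥1 read per output. Fitness is log base 2 of genotype enrichment divided by wild-type enrichment, from inverse-variance-weighted replicate averages.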
As to U33A A50U G93C A95G C101G, the “polymerase ribozyme fitness (log ratio)” value is -7.02. As for C34A C97A C115G, the figure is -4.43; as for A29G C49G G57C A121C, -0.725. Consider C34A C80U G127U, for which the “polymerase ribozyme fitness (log ratio)” value is -4.5. As for A29U A41C A119G C123G, the figure is -1.43; as for A29U U54G, -2.02; as for C34A G61C A91C A121U U134C, -5.66.

With A29G A37G C40U G61C G127U, the “polymerase ribozyme fitness (log ratio)” value was -4.48. For A29G C53G U106A G117C, the “polymerase ribozyme fitness (log ratio)” value was -3.33.

Regarding C34A U78C, the “polymerase ribozyme fitness (log ratio)” value is -2.79. A29U G48C C53U: the “polymerase ribozyme fitness (log ratio)” value is -3.4. As for C34A C72U, the figure is -2.58; as for C34G A43G C53A G71A A111C C123G, -7.9; as for U30C C62U U78A U106C A121U, -3.04. Take A29U C53A: the “polymerase ribozyme fitness (log ratio)” value is -1.37. The value for U30C C70U was -2.92; that for A29G U32A U55C was -5.1. In the case of C31U U32G G35U G61U A91C A121U, the “polymerase ribozyme fitness (log ratio)” value was -7.

As for C34A U55C, the “polymerase ribozyme fitness (log ratio)” value was -3.18. Consider U33A C64A G69C, for which the “polymerase ribozyme fitness (log ratio)” value was -5.43. With C34A C40U C49A C62U U96G, the “polymerase ribozyme fitness (log ratio)” value is -5.57.

Turning to A29G G61C, the “polymerase ribozyme fitness (log ratio)” value is -2.51. As for A29G G47C C53A U59A, the figure is -2.24; as for A29U C72U C102U, -5.4; as for U33A G52U C115A, -4.73. The value for C34G C53U C73U G113C C114G was -8.55; that for U32C G117U was -2.41; that for A29G U32C A50U C73U was -2.14. As for A29U G93A, the figure is -2.13; as for U33G G39A C72G A84G A111U, -6.45; as for C34A G48A U59C C101A, -5.32. Consider A29G G60U A84C C94U U106A G120A U125G, for which the “polymerase ribozyme fitness (log ratio)” value was -0.963. The value for U32G C56U U109A C124U was -6.14; that for U33A G120U was -5.15; that for U33C C99G U109A was -7.26. For C31U C70U, the “polymerase ribozyme fitness (log ratio)” value was -4.33.

As for C31U G135U, the “polymerase ribozyme fitness (log ratio)” value is -4.94. As for U30A C104U A121C, the figure is -4.08; as for A29U C88U, -1.36. Take U32G C62A C102A A111G: the “polymerase ribozyme fitness (log ratio)” value is -6.35. Consider C34G A37U U55G C72G U92C C124A, for which the “polymerase ribozyme fitness (log ratio)” value was -5.91. As for A29G C40A A41U U92G, the figure is -4.59. As for C31U G39A G69U G120U, the figure is -3.44; as for C31A A37U G60A A83C, -7.59. The value for C34A G48C G77A was -2.78; that for C31U G69U C98U A119G was -3.7; that for C34A G113C G117C was -6.74.

Regarding C34G A111G U129G, the “polymerase ribozyme fitness (log ratio)” value is -6.92.

As to U33G C94A G113C G117A, the “polymerase ribozyme fitness (log ratio)” value is -6.01. U33G G39U A50U C70U A84U A91C C114A: the “polymerase ribozyme fitness (log ratio)” value is -7.12. Take C31U G44C G69U C115U U130A: the “polymerase ribozyme fitness (log ratio)” value was -4.82. Consider U32C C62U G77C A100C U106G, for which the “polymerase ribozyme fitness (log ratio)” value is -3.33. Regarding C31U C70A G113A C123G C124A, the “polymerase ribozyme fitness (log ratio)” value was -7.42.

Take U33G G52C C64G U78A C98A U112G U116G: the “polymerase ribozyme fitness (log ratio)” value is -7.08. As for C31A G45U C115G, the figure is -6.15; as for A29G G63A, -1.9. The value for C34A A84U was -2.81; that for U30C C56U was -2.08. The value for C31U C86A was -5.09; that for C34A G69U was -0.154; that for C34A G69C was -4.71.

With C31U C88G, the “polymerase ribozyme fitness (log ratio)” value is -6.51. U33A G36C C72U: the “polymerase ribozyme fitness (log ratio)” value was -4.02.

C31U C82U: the “polymerase ribozyme fitness (log ratio)” value is -5.12. As for U33G G69A C70A A111U, the figure is -7.15. Turning to A29G C101A A118U, the “polymerase ribozyme fitness (log ratio)” value is -3.6. The value for U30G A43C C101A U106C C115U U132A was -7.22. The value for U30C G69A was -4.88; that for A29G A74U was -1.73; that for C31U C49A C123U C124U was -4.12. The value for A29U A84C U87C U112C was -0.813; that for A29G U87A C104G A111U was -4.03; that for A29U C99U U106A was -4.1. As to A29U A83U C86A C114A A118U, the “polymerase ribozyme fitness (log ratio)” value is -3.87. As for A29U A43C G44U C53G A111U U134A, the “polymerase ribozyme fitness (log ratio)” value was -0.68. As to U30C G61C C72U A95U, the “polymerase ribozyme fitness (log ratio)” value was -4. As for U33A C88U, the figure is -3.66; as for A29G G58C, -1.5.

A29G A66G: the “polymerase ribozyme fitness (log ratio)” value is -1.88.

For C31G C34U G69U U78C C86U C101A G113U, the “polymerase ribozyme fitness (log ratio)” value was -7.18. Take C31A A37G C80G C86U U92C A105U A111U: the “polymerase ribozyme fitness (log ratio)” value was -7.03. As for A29G A37G A84G G110U A121G, the “polymerase ribozyme fitness (log ratio)” value was -3.06. As for A29U A46C G48A A84C, the figure is -3.31. As for U33A C62G C73A U78G, the figure is -5.54; as for U30A A111U, -4.14; as for U30C A50C, -2.91.

On to U30C G58C, for which the “polymerase ribozyme fitness (log ratio)” value is -2.83. The value for A29G C104U U112G was 1.06.

Regarding U32C C76U A90U, the “polymerase ribozyme fitness (log ratio)” value was -2.2. As for C34A C53A C56A, the figure is -2.66; as for U30C A41G, -3.33; as for U30C G61A C79G, -4.69. With U30A C73A, the “polymerase ribozyme fitness (log ratio)” value is -5.19. The value for C31U A68G was -6.34; that for A29U C49G C73U C76U C94A was -3.55. As for U30C C40U C53G C56G C62U C76A, the figure is -5.08. The value for C34A G61A U112A C115U was -6.79. Regarding U32C G35C C53A U78A, the “polymerase ribozyme fitness (log ratio)” value was -4.25. Turning to A29G G71A, the “polymerase ribozyme fitness (log ratio)” value is -1.75. In the case of U33C G77C, the “polymerase ribozyme fitness (log ratio)” value was -5.05. As for U33C A37C G42U G69U A111C C115A G127C U133G, the figure is -5.26. As to A29U U109G G122A, the “polymerase ribozyme fitness (log ratio)” value is -1.47. As for C31U C89U U96A U106G U112A U130C, the figure is -4.19; as for C31G C56G A68U U81A C99G G110C, -7.68; as for C34G A50U G61C A90G G110C, -7.04. In the case of C34A G36U, the “polymerase ribozyme fitness (log ratio)” value was -4.2. As for A29U A46C, the figure is -3.27; as for U32A C88G U125A, -5.98. For A29G G58U U59A, the “polymerase ribozyme fitness (log ratio)” value is -1.29.

Take U33A C104U U112A: the “polymerase ribozyme fitness (log ratio)” value is -3.5. C34A C53G C56A: the “polymerase ribozyme fitness (log ratio)” value is -2.83.

Turning to A29U A41C, the “polymerase ribozyme fitness (log ratio)” value is -2. Consider C34G C40U, for which the “polymerase ribozyme fitness (log ratio)” value was -6.15. As for C31U G113A, the figure is -3.94; as for A29C G39A A50U G52A U112C, -5.09. The value for U33C C70G was -6.4; that for C34A U133A was -2.19; that for U33G C34G C72G G110A was -6.68. As for C34G A43C G60U, the figure is -6.09; as for A29C G61U C70U A75G U78G, -3.77; as for U30C G44U A50G C88U, -2.96.

Consider C31G G36U G44A A74U A108U U112G, for which the “polymerase ribozyme fitness (log ratio)” value is -7.74. For the variant A29U G71A G135C, the “polymerase ribozyme fitness (log ratio)” value was -2.1. As for A29U A46U U106A, the figure is -2.03. On to C34G C53U, for which the “polymerase ribozyme fitness (log ratio)” value was -5.89.

Take U32A C40U U106A: the “polymerase ribozyme fitness (log ratio)” value was -6.43. The value for U33A G47A A121U was -3.55; that for C31U C79G C124G was -5.57; that for U32C A41U C124G G128A was -1.01. On to U32C G48A C102A C123U, for which the “polymerase ribozyme fitness (log ratio)” value was -2.5. Take C34A U38A G71U C101U: the “polymerase ribozyme fitness (log ratio)” value was -5.16. As for U32C G60C A75C C79G, the figure is -1.89.

With U32A U33C G77C C102G G107A A121G, the “polymerase ribozyme fitness (log ratio)” value is -7.93. For U33C G60C, the “polymerase ribozyme fitness (log ratio)” value is -5.53. Consider U33C G60U, for which the “polymerase ribozyme fitness (log ratio)” value is -3.44. For the variant A29U G61C, the “polymerase ribozyme fitness (log ratio)” value was -2.79. Regarding A29U C53U C56U G69U G93C, the “polymerase ribozyme fitness (log ratio)” value is -3.98.

Turning to A29U G48C, the “polymerase ribozyme fitness (log ratio)” value is -2.86. Consider C31A G44U G69A A100C U109G G135U, for which the “polymerase ribozyme fitness (log ratio)” value is -6.04. Turning to C31U C72U, the “polymerase ribozyme fitness (log ratio)” value is -4.57. Consider C31U C72A, for which the “polymerase ribozyme fitness (log ratio)” value is -4.11. Take A29G C40U: the “polymerase ribozyme fitness (log ratio)” value was -2.17. As for A29G C64U C104A U106A U112C, the figure is -0.729; as for U30A G110U, -4.94. In the case of A29G C115U U126G, the “polymerase ribozyme fitness (log ratio)” value was -3.15. As for A29G C49U A119U G120A C123A, the figure is -2.51. Turning to C34A G48U A121U, the “polymerase ribozyme fitness (log ratio)” value is -1.3. As for C31A A121U, the figure is -3.46; as for U33C G52A G58C G69A C104U U109A A111G U112A, -6.93. On to U33A G52U U112A, for which the “polymerase ribozyme fitness (log ratio)” value is -6.07. Take A29U U38G G45U G120A U129A: the “polymerase ribozyme fitness (log ratio)” value was -4.85. The value for A29U U126C was -2.33; that for U32C U87A was -0.0352. As for U33G C34G A103U, the figure is -6.38; as for C31G U33A G48U C49U C72G A108U G120U, -8.14. As for C31G C123U, the figure is -7.18; as for C34A C73G G120A C124G U133A, -1.12. In the case of A29G G52U, the “polymerase ribozyme fitness (log ratio)” value is -1.55. The value for A29C G36U G45U was -4.64; that for A29G C79G was -2.5; that for C31G C53A G71U G107C was -1.67.

As to A29G G57U G128C, the “polymerase ribozyme fitness (log ratio)” value is -3.73. Turning to U33G G69U, the “polymerase ribozyme fitness (log ratio)” value was -2.25. Regarding U33G A50G A121C, the “polymerase ribozyme fitness (log ratio)” value is -4.43.

A29G C56G A91C U112A A121G G122C: the “polymerase ribozyme fitness (log ratio)” value was -2.1. Turning to C34A G48U G61C C72G C94G A119G U133C, the “polymerase ribozyme fitness (log ratio)” value is -3.16.

As to A29G C102A, the “polymerase ribozyme fitness (log ratio)” value is -4.16.

Source of the values: the RNAGym collection of RNA variant scans (doi:10.1073/pnas.2313332121).
